Paper PMC11969024, “Development of chemokine network inhibitors using combinatorial saturation mutagenesis” (Communications Biology, 2025)

B1: peptide HD2 (from tick evasin EVA4) / CCL4 (biotinylated, synthetic) (parent)
chain 1: EEDDYTAYAPLTCYFT
chain 2: APMGSDPPTACCFSYTARKLPRNFVVDYYETSSLCSQPAVVFQTKRSKQVCADPSESWVQEYVYDLELN
B2: peptide HD2 (from tick evasin EVA4) / CXCL11 (biotinylated, synthetic) (parent)
chain 1: EEDDYTAYAPLTCYFT
chain 2: FPMFKRGRCLCIGPGVKAVKVADIEKASIMYPSNNCDKIEVIITLKENKGQRCLNPKSKQARLIIKKVERKNF

Variants of: B1
Details: with CCL4 (biotinylated, synthetic); scale: log2

Variant	enrichment
chain 1 EEDDYCAYAPLTCYFT [chain 1 T6C]	-10.7
chain 1 EEDCYTAYAPLTCYFT [chain 1 D4C]	-8.81
chain 1 EEDDYTAYAILTCYFT [chain 1 P10I]	-8.01
chain 1 EEDDYTAYAKLTCYFT [chain 1 P10K]	-6.53
chain 1 EEDDYTAYARLTCYFT [chain 1 P10R]	-8.65
chain 1 EEDDYTAYAMLTCYFT [chain 1 P10M]	-8.07
chain 1 EEDDYTAYAHLTCYFT [chain 1 P10H]	-7.52
chain 1 EEDDYTAYANLTCYFT [chain 1 P10N]	-7.59
chain 1 CEDDYTAYAPLTCYFT [chain 1 E1C]	-9.32
chain 1 EECDYTAYAPLTCYFT [chain 1 D3C]	-9.47
chain 1 EEKDYTAYAPLTCYFT [chain 1 D3K]	-4.93
chain 1 EEDDKTAYAPLTCYFT [chain 1 Y5K]	-5.17
chain 1 EEDDNTAYAPLTCYFT [chain 1 Y5N]	-7.28
chain 1 EEDDGTAYAPLTCYFT [chain 1 Y5G]	-6.68
chain 1 EEDDATAYAPLTCYFT [chain 1 Y5A]	-6.64
chain 1 EEDDQTAYAPLTCYFT [chain 1 Y5Q]	-4.93
chain 1 EEDDYTAYDPLTCYFT [chain 1 A9D]	-7.8
chain 1 EEDDYTAYCPLTCYFT [chain 1 A9C]	-9.66
chain 1 ECDDYTAYAPLTCYFT [chain 1 E2C]	-9.58
chain 1 EEDDYTAYAPLTRYFT [chain 1 C13R]	-10.1
chain 1 EEDDYTAYAPLTHYFT [chain 1 C13H]	-8.22
chain 1 EEDDYTAMAPLTCYFT [chain 1 Y8M]	-8.06
chain 1 EEDDYTACAPLTCYFT [chain 1 Y8C]	-9.25
chain 1 EEDDYTARAPLTCYFT [chain 1 Y8R]	-7.75
chain 1 EEDDYTAGAPLTCYFT [chain 1 Y8G]	-8.28
chain 1 EEDDYTAKAPLTCYFT [chain 1 Y8K]	-5.64
chain 1 EEDDYTAQAPLTCYFT [chain 1 Y8Q]	-5.93

Variants of: B2
Details: with CXCL11 (biotinylated, synthetic); scale: log2

Variant	enrichment
chain 1 EEDDYTAYDPLTCYFT [chain 1 A9D]	-5.37
chain 1 EEDDYTAYCPLTCYFT [chain 1 A9C]	-7.23
chain 1 EEDDYTAYKPLTCYFT [chain 1 A9K]	-3.76
chain 1 EEHDYTAYAPLTCYFT [chain 1 D3H]	-4.1
chain 1 EEKDYTAYAPLTCYFT [chain 1 D3K]	-2.5
chain 1 EEEDYTAYAPLTCYFT [chain 1 D3E]	-1.84
chain 1 EERDYTAYAPLTCYFT [chain 1 D3R]	-4.59
chain 1 EEVDYTAYAPLTCYFT [chain 1 D3V]	-6.48
chain 1 EEQDYTAYAPLTCYFT [chain 1 D3Q]	-2.12
chain 1 EEADYTAYAPLTCYFT [chain 1 D3A]	-4.17
chain 1 EEMDYTAYAPLTCYFT [chain 1 D3M]	-4.98
chain 1 EEPDYTAYAPLTCYFT [chain 1 D3P]	-4.65
chain 1 EECDYTAYAPLTCYFT [chain 1 D3C]	-7.03
chain 1 EEDDYTAYAPLKCYFT [chain 1 T12K]	-4.72
chain 1 EEDDYTAYAPLGCYFT [chain 1 T12G]	-7.44
chain 1 EEDDYTAYAPLTDYFT [chain 1 C13D]	-6.29
chain 1 EEDDYTAYAPLTWYFT [chain 1 C13W]	-6.78
chain 1 EEDDYTAYAPLTGYFT [chain 1 C13G]	-7.57
chain 1 EEDDYTAYAPLTIYFT [chain 1 C13I]	-5.31
chain 1 EEDDYTAYAPLTYYFT [chain 1 C13Y]	-5.88
chain 1 EEDDYTAYAPLTRYFT [chain 1 C13R]	-7.69
chain 1 EEDDYTAYAPLTKYFT [chain 1 C13K]	-6.26
chain 1 EEDDYTCYAPLTCYFT [chain 1 A7C]	-6.98

Variant	enrichment
chain 1 EEDDYTAYAKLTCYFT [chain 1 P10K]	-4.1
chain 1 EEDDYTAYARLTCYFT [chain 1 P10R]	-6.22
chain 1 EEDDYTAYAYLTCYFT [chain 1 P10Y]	-5.7
chain 1 EEDDYTAYAFLTCYFT [chain 1 P10F]	-6.55
chain 1 EEDDYTAYAQLTCYFT [chain 1 P10Q]	-3.53
chain 1 EEDDYTAYACLTCYFT [chain 1 P10C]	-6.86
chain 1 EEDDYTAYAPLTCYFR [chain 1 T16R]	-6.32
chain 1 EEDDYTAYAPLTCYFH [chain 1 T16H]	-4.21
chain 1 EEDDYTAYAPGTCYFT [chain 1 L11G]	-7.39
chain 1 EEDDYTAYAPQTCYFT [chain 1 L11Q]	-3.39
chain 1 EEDDYTAYAPETCYFT [chain 1 L11E]	-5.3
chain 1 EEDDYTAYAPNTCYFT [chain 1 L11N]	-5.58
chain 1 REDDYTAYAPLTCYFT [chain 1 E1R]	-5.11
chain 1 KEDDYTAYAPLTCYFT [chain 1 E1K]	-3.21
chain 1 CEDDYTAYAPLTCYFT [chain 1 E1C]	-6.89
chain 1 EEDDSTAYAPLTCYFT [chain 1 Y5S]	-6.24
chain 1 EEDDDTAYAPLTCYFT [chain 1 Y5D]	-4.19
chain 1 EEDDRTAYAPLTCYFT [chain 1 Y5R]	-4.19
chain 1 EEDDKTAYAPLTCYFT [chain 1 Y5K]	-2.74
chain 1 EEDDPTAYAPLTCYFT [chain 1 Y5P]	-3.87
chain 1 EEDDTTAYAPLTCYFT [chain 1 Y5T]	-4.8
chain 1 EEDDQTAYAPLTCYFT [chain 1 Y5Q]	-2.5
chain 1 EEDDGTAYAPLTCYFT [chain 1 Y5G]	-4.25

Variant	enrichment
chain 1 EEDDVTAYAPLTCYFT [chain 1 Y5V]	-6.41
chain 1 EEDDMTAYAPLTCYFT [chain 1 Y5M]	-4.78
chain 1 EEDDCTAYAPLTCYFT [chain 1 Y5C]	-6.3
chain 1 EEDDETAYAPLTCYFT [chain 1 Y5E]	-0.621
chain 1 EEDDATAYAPLTCYFT [chain 1 Y5A]	-4.21
chain 1 EEDEYTAYAPLTCYFT [chain 1 D4E]	-3.08
chain 1 EEDGYTAYAPLTCYFT [chain 1 D4G]	-3.36
chain 1 EEDRYTAYAPLTCYFT [chain 1 D4R]	-4.23
chain 1 EEDAYTAYAPLTCYFT [chain 1 D4A]	-5.22
chain 1 EEDHYTAYAPLTCYFT [chain 1 D4H]	-4.91
chain 1 EEDTYTAYAPLTCYFT [chain 1 D4T]	-5.01
chain 1 EEDCYTAYAPLTCYFT [chain 1 D4C]	-6.38
chain 1 EEDNYTAYAPLTCYFT [chain 1 D4N]	-5.1
chain 1 EEDKYTAYAPLTCYFT [chain 1 D4K]	-4.01
chain 1 EPDDYTAYAPLTCYFT [chain 1 E2P]	-4.19
chain 1 ECDDYTAYAPLTCYFT [chain 1 E2C]	-7.15
chain 1 ERDDYTAYAPLTCYFT [chain 1 E2R]	-4.27
chain 1 EQDDYTAYAPLTCYFT [chain 1 E2Q]	-2.04
chain 1 EEDDYTAEAPLTCYFT [chain 1 Y8E]	-3.32
chain 1 EEDDYTACAPLTCYFT [chain 1 Y8C]	-6.82
chain 1 EEDDYTAYAPLTCYNT [chain 1 F15N]	-3.87
